The source of these data is patent US11789012B2, “Cell death biomarker” (UCL Business PLC, priority 2016, dated 2023).

The test system of the assay is mesothelioma cell lines. The assay can be described thus: Chemical screen, viability of mesothelioma cell lines by BAP1 mutation status. The assay is classed as cell-based, Human. The conditions noted are these: 6 day viability assay, 40 ng/ml rTRAIL. On the procedure:
FIG. 2A is a volcano plot showing drug-genome interactions in MPM. […] The Y-axis denotes adjusted p-Value, X-axis denotes effect size. Size of circle indicates number of mutant lines in cohort tested. […] Met 5a is a mesothelial normal control line. FIG. 2C is a scatter plot showing AUC following 6 day viability assay in response to 40 ng/ml rTRAIL (normalised to DMSO treated control) in cell lines discretized by BAP1 mutation status. […] Two-tailed t-test, p=0.015.
Manual “single dose” combination screening was undertaken using 96 well formats. Cells were plated on day 1 in previously optimized seeding densities in 180 μl if media. On day 2 20 μl of a 10× concentration of media from a stock of drugs was added. […]
A binary event matrix was compiled for the cell lines in the mesothelioma screen by aggregating copy number and exome data and this was used as input classifiers for genomic correlation. Data from this therapeutic screen was then analysed using a Multivariate Analysis of Variance (MANOVA) to annotate the sensitizing effect of genotype on dose response.
Adherent cell lines were seeded 24 hours before drugging. Cells were trypsinised and counted before seeding at the optimal density for the size of well (96 or 384) and duration of assay. […] Quantification of fluorescent signal was achieved using excitation/emission wavelength of 630/695 […].

B1: rTRAIL: recombinant protein that activates the TRAIL pathway by binding to TRAIL-R1 (DR 4) and TRAIL-R2 (DR 5) (protein, UniProt P50591 1-281, looked up)
Tumor necrosis factor ligand …: MAMMEVQGGPSLGQTCVLIVIFTVLLQSLCVAVTYVYFTNELKQMQDKYSKSGIACFLKEDDSYWDPNDEESMNSPCWQVKWQLRQLVRKMILRTSEETISTVQEKQQNISPLVRERGPQRVAAHITGTRGRSNTLSSPNSKNEKALGRKINSWESSRSGHSFLSNLHLRNGELVIHEKGFYYIYSQTYFRFQEEIKENTKNDKQMVQYIYKYTSYPDPILLMKSARNSCWSKDAEYGLYSIYQGGIFELKENDRIFVSVTNEHLIDMDHEASFFGAFLVG
Turning to B1, the “sensitivity of BAP1 mutant cells compared with wild-type counterparts” value was “significantly more sensitive”.
